What was measured:
[1] = nuclear/cytoplasmic fractionation blot and immunofluorescence; conditions: glycan lost; control: control cells (sh-CTRL)
[2] = western blot, PANC1 and PaTU8988; conditions: glycan lost; control: sh-CTRL
western blot = conditions: glycan lost; control: untreated
[3] = cycloheximide chase, western blot; conditions: glycan lost; control: without BADGP

B1: ZEB1: OGT knockdown (protein)
parent chain: MKVTNYNTVVETNSDSDDEDKLHIVEEESVTDAADCEGVPEDDLPTDQTVLPGRSSEREGNAKNCWEDDTGKEGQEILGPEAQADEAGCTVKDDECESDAENEQNHDPNVEEFLQQQDTAVIFPEAPEEDQRQGTPEASGHDENGTPDAFSQLLTCPYCDRGYKRFTSLKEHIKYRHEKNEDNFSCSLCSYTFAYRTQLERHMTSHKSGRDQRHVTQSGCNRKFKCTECGKAFKYKHHLKEHLRIHSGEKPYECPNCKKRFSHSGSYSSHISSKKCISLIPVNGRPRTGLKTSQCSSPSLSASPGSPTRPQIRQKIENKPLQEQLSVNQIKTEPVDYEFKPIVVASGINCSTPLQNGVFTGGGPLQATSSPQGMVQAVVLPTVGLVSPISINLSDIQNVLKVAVDGNVIRQVLENNQANLASKEQETINASPIQQGGHSVISAISLPLVDQDGTTKIIINYSLEQPSQLQVVPQNLKKENPVATNSCKSEKLPEDLTVKSEKDKSFEGGVNDSTCLLCDDCPGDINALPELKHYDLKQPTQPPPLPAAEAEKPESSVSSATGDGNLSPSQPPLKNLLSLLKAYYALNAQPSAEELSKIADSVNLPLDVVKKWFEKMQAGQISVQSSEPSSPEPGKVNIPAKNNDQPQSANANEPQDSTVNLQSPLKMTNSPVLPVGSTTNGSRSSTPSPSPLNLSSSRNTQGYLYTAEGAQEEPQVEPLDLSLPKQQGELLERSTITSVYQNSVYSVQEEPLNLSCAKKEPQKDSCVTDSEPVVNVIPPSANPINIAIPTVTAQLPTIVAIADQNSVPCLRALAANKQTILIPQVAYTYSTTVSPAVQEPPLKVIQPNGNQDERQDTSSEGVSNVEDQNDSDSTPPKKKMRKTENGMYACDLCDKIFQKSSSLLRHKYEHTGKRPHECGICKKAFKHKHHLIEHMRLHSGEKPYQCDKCGKRFSHSGSYSQHMNHRYSYCKREAEERDSTEQEEAGPEILSNEHVGARASPSQGDSDERESLTREEDEDSEKEEEEEDKEMEELQEEKECEKPQGDEEEEEEEEEVEEEEVEEAENEGEEAKTEGLMKDDRAESQASSLGQKVGESSEQVSEEKTNEA
Question: Which localisation_or_trafficking [1] does the source give for B1 here?
Answer: The localisation_or_trafficking was “decreases”.

B2: ZEB1: sh-OGT (protein)
parent chain: MKVTNYNTVVETNSDSDDEDKLHIVEEESVTDAADCEGVPEDDLPTDQTVLPGRSSEREGNAKNCWEDDTGKEGQEILGPEAQADEAGCTVKDDECESDAENEQNHDPNVEEFLQQQDTAVIFPEAPEEDQRQGTPEASGHDENGTPDAFSQLLTCPYCDRGYKRFTSLKEHIKYRHEKNEDNFSCSLCSYTFAYRTQLERHMTSHKSGRDQRHVTQSGCNRKFKCTECGKAFKYKHHLKEHLRIHSGEKPYECPNCKKRFSHSGSYSSHISSKKCISLIPVNGRPRTGLKTSQCSSPSLSASPGSPTRPQIRQKIENKPLQEQLSVNQIKTEPVDYEFKPIVVASGINCSTPLQNGVFTGGGPLQATSSPQGMVQAVVLPTVGLVSPISINLSDIQNVLKVAVDGNVIRQVLENNQANLASKEQETINASPIQQGGHSVISAISLPLVDQDGTTKIIINYSLEQPSQLQVVPQNLKKENPVATNSCKSEKLPEDLTVKSEKDKSFEGGVNDSTCLLCDDCPGDINALPELKHYDLKQPTQPPPLPAAEAEKPESSVSSATGDGNLSPSQPPLKNLLSLLKAYYALNAQPSAEELSKIADSVNLPLDVVKKWFEKMQAGQISVQSSEPSSPEPGKVNIPAKNNDQPQSANANEPQDSTVNLQSPLKMTNSPVLPVGSTTNGSRSSTPSPSPLNLSSSRNTQGYLYTAEGAQEEPQVEPLDLSLPKQQGELLERSTITSVYQNSVYSVQEEPLNLSCAKKEPQKDSCVTDSEPVVNVIPPSANPINIAIPTVTAQLPTIVAIADQNSVPCLRALAANKQTILIPQVAYTYSTTVSPAVQEPPLKVIQPNGNQDERQDTSSEGVSNVEDQNDSDSTPPKKKMRKTENGMYACDLCDKIFQKSSSLLRHKYEHTGKRPHECGICKKAFKHKHHLIEHMRLHSGEKPYQCDKCGKRFSHSGSYSQHMNHRYSYCKREAEERDSTEQEEAGPEILSNEHVGARASPSQGDSDERESLTREEDEDSEKEEEEEDKEMEELQEEKECEKPQGDEEEEEEEEEVEEEEVEEAENEGEEAKTEGLMKDDRAESQASSLGQKVGESSEQVSEEKTNEA
Question: With B2 as the protein, how does the expression_or_secretion [2] read?
Answer: Its expression_or_secretion is “decreases”.

B3: ZEB1: BADGP (protein)
parent chain: MKVTNYNTVVETNSDSDDEDKLHIVEEESVTDAADCEGVPEDDLPTDQTVLPGRSSEREGNAKNCWEDDTGKEGQEILGPEAQADEAGCTVKDDECESDAENEQNHDPNVEEFLQQQDTAVIFPEAPEEDQRQGTPEASGHDENGTPDAFSQLLTCPYCDRGYKRFTSLKEHIKYRHEKNEDNFSCSLCSYTFAYRTQLERHMTSHKSGRDQRHVTQSGCNRKFKCTECGKAFKYKHHLKEHLRIHSGEKPYECPNCKKRFSHSGSYSSHISSKKCISLIPVNGRPRTGLKTSQCSSPSLSASPGSPTRPQIRQKIENKPLQEQLSVNQIKTEPVDYEFKPIVVASGINCSTPLQNGVFTGGGPLQATSSPQGMVQAVVLPTVGLVSPISINLSDIQNVLKVAVDGNVIRQVLENNQANLASKEQETINASPIQQGGHSVISAISLPLVDQDGTTKIIINYSLEQPSQLQVVPQNLKKENPVATNSCKSEKLPEDLTVKSEKDKSFEGGVNDSTCLLCDDCPGDINALPELKHYDLKQPTQPPPLPAAEAEKPESSVSSATGDGNLSPSQPPLKNLLSLLKAYYALNAQPSAEELSKIADSVNLPLDVVKKWFEKMQAGQISVQSSEPSSPEPGKVNIPAKNNDQPQSANANEPQDSTVNLQSPLKMTNSPVLPVGSTTNGSRSSTPSPSPLNLSSSRNTQGYLYTAEGAQEEPQVEPLDLSLPKQQGELLERSTITSVYQNSVYSVQEEPLNLSCAKKEPQKDSCVTDSEPVVNVIPPSANPINIAIPTVTAQLPTIVAIADQNSVPCLRALAANKQTILIPQVAYTYSTTVSPAVQEPPLKVIQPNGNQDERQDTSSEGVSNVEDQNDSDSTPPKKKMRKTENGMYACDLCDKIFQKSSSLLRHKYEHTGKRPHECGICKKAFKHKHHLIEHMRLHSGEKPYQCDKCGKRFSHSGSYSQHMNHRYSYCKREAEERDSTEQEEAGPEILSNEHVGARASPSQGDSDERESLTREEDEDSEKEEEEEDKEMEELQEEKECEKPQGDEEEEEEEEEVEEEEVEEAENEGEEAKTEGLMKDDRAESQASSLGQKVGESSEQVSEEKTNEA
Question: With B3 as the protein, how does the expression_or_secretion (western blot) read?
Answer: Its expression_or_secretion is “decreases”.

Question: And the degradation_or_half_life [3]?
Answer: Its degradation_or_half_life is “decreases”.
